This is an account of results in patent EP4714978A1 (Neukio Biotherapeutics (Shangai ) Co., Ltd., dated 2026).

In assay [1] the target is T1, human DLL3 protein (human, UniProt Q9NYJ7 27-492, limits assumed).
T1 construct: Soluble human DLL3 protein used in BLI; also called Delta-like protein 3
T1 sequence (looked up): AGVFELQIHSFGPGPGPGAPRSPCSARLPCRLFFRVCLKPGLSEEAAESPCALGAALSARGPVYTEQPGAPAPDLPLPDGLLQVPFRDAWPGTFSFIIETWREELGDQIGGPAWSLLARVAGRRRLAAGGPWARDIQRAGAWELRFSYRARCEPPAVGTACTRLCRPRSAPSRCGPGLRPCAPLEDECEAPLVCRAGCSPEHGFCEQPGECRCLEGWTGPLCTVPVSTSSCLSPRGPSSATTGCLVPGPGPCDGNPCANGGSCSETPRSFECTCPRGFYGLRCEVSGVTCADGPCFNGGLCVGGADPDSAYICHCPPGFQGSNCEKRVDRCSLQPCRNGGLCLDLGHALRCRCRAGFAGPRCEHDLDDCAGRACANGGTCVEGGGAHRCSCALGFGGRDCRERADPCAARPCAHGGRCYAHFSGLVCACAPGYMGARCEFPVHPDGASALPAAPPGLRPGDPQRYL
The assay can be described thus: BLI, scFv-Fc against human DLL3 protein. Background: Biolayer interferometry detects binding as a change in optical thickness at a sensor tip.

Assay [2] deals with T2, DLL3 on the surface of DLL3-positive cell lines SHP77 and NCI-H82 (UniProt Q9NYJ7 27-618, limits assumed).
T2 construct: whole, on cells; The cell line of each number is named under assay
T2 sequence (looked up): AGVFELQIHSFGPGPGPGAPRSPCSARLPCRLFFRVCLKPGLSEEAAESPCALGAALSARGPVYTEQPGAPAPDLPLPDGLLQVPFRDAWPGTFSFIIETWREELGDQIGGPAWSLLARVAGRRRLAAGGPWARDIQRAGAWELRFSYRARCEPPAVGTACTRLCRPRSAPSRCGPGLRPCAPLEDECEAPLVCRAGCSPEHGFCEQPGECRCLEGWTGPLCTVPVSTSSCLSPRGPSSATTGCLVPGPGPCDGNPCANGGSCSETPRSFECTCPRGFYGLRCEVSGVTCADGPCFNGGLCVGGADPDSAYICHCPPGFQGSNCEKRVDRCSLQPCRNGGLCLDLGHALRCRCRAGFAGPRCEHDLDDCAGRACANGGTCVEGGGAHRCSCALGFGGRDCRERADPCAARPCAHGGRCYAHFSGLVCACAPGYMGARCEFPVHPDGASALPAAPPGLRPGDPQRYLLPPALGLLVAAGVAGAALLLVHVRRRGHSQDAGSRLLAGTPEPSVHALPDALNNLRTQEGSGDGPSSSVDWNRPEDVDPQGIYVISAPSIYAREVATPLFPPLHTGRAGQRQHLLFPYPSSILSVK
Put plainly: flow cytometry on NCI-H82 cells. A general note: A flow cytometer gives signals particle by particle.

The target in assay [3] is T1, human DLL3 protein. Put plainly: BLI, scFv-Fc against human DLL3 protein; koff below the instrument detection limit.
Assay [4] has as its target T2, DLL3 on the surface of DLL3-positive …. Put plainly: flow cytometry on SHP77 cells.

One may read the Kd as the free concentration of one partner at which half of the binding sites on the other are occupied at equilibrium, for simple one-to-one binding. High values mean weaker binding, low ones tighter binding. A word on the kon: it is a measure of how fast the partners come together. Low values mean slow association, high ones fast association. The term EC50 denotes the concentration giving half of the maximal effect. The term koff denotes the first-order rate constant of dissociation. The low end stands for slow dissociation, the high end for fast dissociation.

Where only a bound is given, the exact number is not on record here.

B1: Ab.73 scFv-human IgG Fc (Fc fusion)
chain: DVVMTQSPLSLPVTLGQPASISCRSSQSLGYSDGDTYLIWFLQRPGQSPRRLIYKVSNRDSGVPDRFSGSGSGTDFTLKISRVEAEDVGVYYCMQGTHWPYTFGQGTKLEIKGGGGSGGGGSGGGGSQVQVQESGPGLVKPSETLSLTCTVSTGSFSSHYWSWIRQPPGKSLEYIGYIYYTGTTNYNPSLKSRVTISVDTSKNQFSLNVNSVTAADTAVYYCAREGTFDIWGQGTMVTVSS
notes: Tested as scFv-human IgG Fc; not shown: human IgG Fc
In the assay with human DLL3 protein [1], B1 registered a Kd of under 0.005 nM and an association rate constant (kon) of 193000 M⁻¹ s⁻¹. In assay [2], this molecule showed a concentration for a half-maximal effect (EC50) of 0.042 µg/mL. Further, the off-rate (koff) with human DLL3 protein [3] was under 1e-06 s⁻¹. In assay [4], this molecule returned an EC50 of 0.077 µg/mL.

B2: Ab.79 scFv-human IgG Fc (Fc fusion)
chain: DVVMTQSPLSLPVTLGQPASISCRSSQSLVYNDGNTYLTWFQQWPGQSPRRLIYKVSNRDSGVPDRFSGSGSGTDFTLKISRVEAEDIGVYHCMQGTHWPYTFGQGTKLEIKGGGGSGGGGSGGGGSQVQVQESGPGLVKSSETLSLTCTVSGGSFRSYYWSWIRQPPGKGLDYIGYMYYSGTTNYNPSLTNRVSISVDTSKNQFSLKLNSVTAADTAVYYCAREGTFDIWGQGTVVTVSS
notes: as for B1
In the assay with human DLL3 protein [1], B2 yielded an equilibrium dissociation constant (Kd) of 0.487 nM, a koff of 0.000186 s⁻¹ and an on-rate constant (kon) of 382000 M⁻¹ s⁻¹. For the same molecule, the concentration for a half-maximal effect (EC50) in assay [2] was found to be 0.064 µg/mL. Moreover, it took 0.073 µg/mL to reach a half-maximal effect in assay [4] (EC50).

B3: Ab.63 scFv-human IgG Fc (Fc fusion)
chain: QIVLTQSPGTLSLSPGERATLSCRASQSVTRGYLAWYQQKPGQAPRLLFYGASNRATDIPDRFSGSGSGTDFTLIISRLEPEDFAVYYCQQYGISPLTFGGGTKVEIKGGGGSGGGGSGGGGSQVQLHESGPGLVKPSETLSLTCTVSGASISSYYWSWIRQPPGKGLEWIGYIYYSGTTNFNPSLKSRVTISVDTSKNQFSLRLSSVTTADTAVYYCANLALTGFHFDYWGQGTLVTVSS
notes: as for B1
Regarding B3, in the assay with human DLL3 protein [1], binding was characterised by a dissociation constant (Kd) of 1.41 nM, the koff stood at 0.000597 s⁻¹ and the kon turned out to be 424000 M⁻¹ s⁻¹. This molecule yielded an EC50 in assay [2] of 0.012 µg/mL. For the same molecule, the half-maximal effective concentration (EC50) in assay [4] worked out at 0.011 µg/mL.

B4: AMG757 (anti-DLL3 scFv from Amgen's patent, positive control) scFv-human IgG Fc (Fc fusion)
chain: EIVLTQSPGTLSLSPGERVTLSCRASQRVNNNYLAWYQQRPGQAPRLLIYGASSRATGIPDRFSGSGSGTDFTLTISRLEPEDFAVYYCQQYDRSPLTFGCGTKLEIKGGGGSGGGGSGGGGSQVQLQESGPGLVKPSETLSLTCTVSGGSISSYYWSWIRQPPGKCLEWIGYVYYSGTTNYNPSLKSRVTISVDTSKNQFSLKLSSVTAADTAVYYCASIAVTGFYFDYWGQGTLVTVSS
notes: not shown: human IgG Fc
In the assay with human DLL3 protein [1], B4 gave a Kd of 0.164 nM, a koff of 3.03e-05 s⁻¹ and an association rate constant (kon) of 185000 M⁻¹ s⁻¹. The molecule further had a half-maximal effective concentration (EC50) in assay [2] of 0.082 µg/mL. This molecule also had a concentration for a half-maximal effect (EC50) in assay [4] of 0.089 µg/mL.

B5: Ab.55 scFv-human IgG Fc (Fc fusion)
chain: EVVMTQSPLSLPVTLGQPASVSCRSSQSLLYSDGNTYLIWFQQRPGQSPRRLLYKLSTRDSGVPDRFSGSGSGTDFTLKISRVEAEDVGIYYCMQVTHWPYTFGQGTKLEIKGGGGSGGGGSGGGGSQVQLRESGPGLVKPSETLSLTCTVSGDSLKNSYWGWIRQPPGKGLEWIGYIYYSGTSSYNPSLESRVTFSADTSKNQFSLKLSSVTAADTAVYYCSREGSFDVWGRGTLVTVSS
notes: as for B1
As to B5, in the assay with human DLL3 protein [1], the equilibrium dissociation constant (Kd) worked out at 0.197 nM, the dissociation rate constant (koff) was 6.31e-05 s⁻¹ and the kon came out at 320000 M⁻¹ s⁻¹. The molecule also showed a concentration for a half-maximal effect (EC50) in assay [2] of 0.15 µg/mL. Besides, the EC50 in assay [4] was 0.11 µg/mL.

B6: Ab.76 scFv-human IgG Fc (Fc fusion)
chain: EIVMTQSPATLSVSPGERATLSCRASQSVSSNLAWYRQKPGQAPRLFIYGAYTRATDIPARFSGSGSGTEFTLTISSLQSEDFAVYYCQQYNNWPFTFGPGTKVDIKGGGGSGGGGSGGGGSEVQMVESGGVLVQPGMSLRLSCAASGFTFDDYAMHWVRQPPGKGLEWVSVISWNSGSIGYADSVKGRFTISRDNAKNSLYLQMNSLRAEDTAFYYCAKDLEGGVMDFDYWGQGTLVTVSS
notes: not shown: human IgG Fc
In the assay with human DLL3 protein [1], B6 came in with a dissociation constant Kd of 1.22 nM, a koff of 0.000288 s⁻¹ and an association rate constant (kon) of 236000 M⁻¹ s⁻¹. For the same molecule, the 50% effective concentration (EC50) in assay [2] is 0.38 µg/mL. Moreover, it took 2.6 µg/mL to reach a half-maximal effect in assay [4] (EC50).

B7: Ab.71 scFv-human IgG Fc (Fc fusion)
chain: DIGMTQSPDSLAVSLGERATINCKSSQNVLPNSNKKHYLSWYQQKPGQPPKLLIYLASTRASGVPDRFSGSGSGTDFTLTISSLQAEDVAVYYCQQYYSSPPEWTFGQGTKVEIKGGGGSGGGGSGGGGSQVQLVESGGGVVQPGRSLRLSCVASGFTFSNCGMHWVRQAPGKGLEWVAIIWYDGNIKYYGDSVKGRFTISRDNSKNTLYLQMNSLRVEDTAVYYCGRHDYGGNSFDYWGQGTLVTVSS
notes: as for B1
In the case of B7, in the assay with human DLL3 protein [1], the Kd was 0.299 nM, the koff is 0.000177 s⁻¹ and the kon is 591000 M⁻¹ s⁻¹. In assay [2], this molecule returned an EC50 of 0.027 µg/mL. The molecule further came in with an EC50 in assay [4] of 0.039 µg/mL.

B8: Ab.67 scFv-human IgG Fc (Fc fusion)
chain: DVVVTQSPLSLPVTLGQPASISCRSSQSLVYSDGNTYLNWFQQRPGQSPRRLVYQVSNRDSGVPDRFSGSGSGTDFTLKISGMEAEDAGVYYCMQGTHWPHTFGQGTKLEIKGGGGSGGGGSGGGGSEVHLVESGGGLVQPGGSLKLSCAASGFIFSGSSMHWVRQASGKGLEWIGRIRNKANNYATSYGASVQGRFTMSRDDSKNTAYLQMNSLKAEDTAVYYCTYLSGEFWGQGTLVTVSS
notes: as for B1
As for B8, in the assay with human DLL3 protein [1], the affinity, expressed as Kd, was 0.34 nM; the koff was found to be 0.000182 s⁻¹; the kon came to 534000 M⁻¹ s⁻¹. This molecule yielded a half-maximal effective concentration (EC50) in assay [2] of 0.11 µg/mL. This molecule also yielded an EC50 in assay [4] of 0.14 µg/mL.
